T1: human ΔN-Chordin (human, UniProt Q9H2X0 127-955)
T1 construct: Chordin, human, truncated form missing the N-terminal vWC1 domain but retaining the C-terminal vWC2-4 domains; source: purified, recombinantly expressed; prepared as described previously (Troilo et al., 2014)
T1 sequence (looked up): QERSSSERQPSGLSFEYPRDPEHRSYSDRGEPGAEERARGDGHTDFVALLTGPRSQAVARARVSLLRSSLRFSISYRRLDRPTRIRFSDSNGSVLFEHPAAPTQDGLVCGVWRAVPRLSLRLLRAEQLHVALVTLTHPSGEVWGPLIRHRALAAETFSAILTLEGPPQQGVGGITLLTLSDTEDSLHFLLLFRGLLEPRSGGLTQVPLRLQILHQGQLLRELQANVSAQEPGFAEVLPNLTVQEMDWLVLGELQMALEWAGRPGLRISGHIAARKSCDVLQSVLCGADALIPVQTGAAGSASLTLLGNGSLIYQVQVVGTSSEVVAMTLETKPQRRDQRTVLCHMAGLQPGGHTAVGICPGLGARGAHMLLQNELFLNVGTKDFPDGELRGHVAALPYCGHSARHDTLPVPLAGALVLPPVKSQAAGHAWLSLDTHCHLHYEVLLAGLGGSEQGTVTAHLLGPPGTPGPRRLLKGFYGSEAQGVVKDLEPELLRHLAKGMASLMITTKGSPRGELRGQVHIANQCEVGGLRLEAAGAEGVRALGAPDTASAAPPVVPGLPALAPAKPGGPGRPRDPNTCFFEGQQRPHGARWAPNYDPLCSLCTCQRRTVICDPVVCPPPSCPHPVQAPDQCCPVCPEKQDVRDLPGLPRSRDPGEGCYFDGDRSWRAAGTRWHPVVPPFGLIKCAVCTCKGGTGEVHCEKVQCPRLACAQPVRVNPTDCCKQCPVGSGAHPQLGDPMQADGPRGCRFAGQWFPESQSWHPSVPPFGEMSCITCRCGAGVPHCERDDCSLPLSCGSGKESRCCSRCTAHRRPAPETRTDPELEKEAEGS


Molecular target: T1, human ΔN-Chordin
Test: SPR; Biacore T200; wildtype or mutant Tsg immobilised on CM5 by amine coupling (350 RU); analyte (ΔN-Chordin or CHRDL2) in a two-fold series, 30 μl/min, 200 s, 300 s dissociation; 20 mM HEPES, 150 mM NaCl, 0.05% Tween20, pH 7.4, 25°C; Langmuir 1:1 fit; triplicate
Details: both partners purified

Binder	Kd [nM]
human Twisted gastrulation (residues Cys26-Phe223) (natural protein, UniProt Q9GZX9 26-223, looked up, Cloned in the vector pHLsec (Addgene_99845) between AgeI and KpnI; secreted; also called Tsg; human Tsg; source: Expi293-F cells, transfected, purified from conditioned media (Strep-Tactin XT, SEC)) CNKALCASDVSKCLIQELCQCRPGEGNCSCCKECMLCLGALWDECCDCVGMCNPRNYSDTPPTSKSTVEELHEPIPSLFRALTEGDTQLNWNIVSFPVAEELSHHENLVSFLETVNQPHHQNVSVPSNNVHAPYSSDKEHMCTVVYFDDCMSIHQCKISCESMGASKYRWFHNACCECIGPECIDYGSKTVKCMNCMF	14
human Twisted gastrulation Leu107Ala (natural protein, UniProt Q9GZX9 26-223, looked up, Twisted gastrulation (Tsg), human, residues Cys26-Phe223, with the point mutation L107A; Point mutant of m1 made by PCR and In-Fusion cloning; also called Tsg^L107A; source: Expi293-F cells, transfected, purified from conditioned media (Strep-Tactin XT, SEC)) CNKALCASDVSKCLIQELCQCRPGEGNCSCCKECMLCLGALWDECCDCVGMCNPRNYSDTPPTSKSTVEELHEPIPSLFRAATEGDTQLNWNIVSFPVAEELSHHENLVSFLETVNQPHHQNVSVPSNNVHAPYSSDKEHMCTVVYFDDCMSIHQCKISCESMGASKYRWFHNACCECIGPECIDYGSKTVKCMNCMF	60

From publication doi:10.1101/2024.07.08.602551, “An avidity-driven mechanism of extracellular BMP regulation by Twisted gastrulation” (bioRxiv, 2024)
